The target in the test is T1, CENP-L:CENP-N^230-C complex (human, UniProt Q8N0S6 1-344; Q96H22 230-339).
T1 construct: CENP-L, human; CENP-N, human, residues 230 to the C-terminus of the 339-residue protein; Form used in SEC and ITC, named without GST; tag probably cleaved with 3C protease; also called CENP-LN^230-C; CENP-LN^230-C dimer; source: Tnao38 insect cells (baculovirus, co-expressed), purified (GSH-Sepharose, Superdex 200)
The test can be described thus: ITC; 25°C, ITC200; 20 mM HEPES pH 7.5, 2.5% glycerol, 300 mM NaCl, 1 mM TCEP; protein in the cell at 5–8 µM, ligand at 50–80 µM; single site binding model. To be noted: both partners purified.

T1 sequence (Q8N0S6 whole entry, chain 1 of 2, the tested form may be a part): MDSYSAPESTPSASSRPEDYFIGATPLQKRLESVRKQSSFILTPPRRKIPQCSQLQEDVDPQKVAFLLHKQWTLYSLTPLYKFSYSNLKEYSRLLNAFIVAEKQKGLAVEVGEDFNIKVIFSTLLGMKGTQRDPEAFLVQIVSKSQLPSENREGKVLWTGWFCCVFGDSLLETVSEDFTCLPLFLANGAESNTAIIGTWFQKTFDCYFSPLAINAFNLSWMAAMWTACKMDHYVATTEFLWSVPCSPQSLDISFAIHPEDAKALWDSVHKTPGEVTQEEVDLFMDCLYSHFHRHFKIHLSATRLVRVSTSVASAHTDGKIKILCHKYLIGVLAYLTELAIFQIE
T1 sequence (Q96H22 230-339, chain 2 of 2): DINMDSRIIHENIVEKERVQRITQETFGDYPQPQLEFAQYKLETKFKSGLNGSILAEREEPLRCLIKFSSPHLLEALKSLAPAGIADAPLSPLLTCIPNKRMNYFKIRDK

B1: CENP-C^225-364 (domain or fragment, human, UniProt Q03188 225-364, looked up)
chain: SDEEDKTSEGQERKPSGSSQNRIRDSEYEIQRQAKKSFSTLFLETVKRKSESSPIVRHAATAPPHSCPPDDTKLIEDEFIIDESDQSFASRSWITIPRKAGSLKQRTISPAESTALLQGRKSREKHHNILPKTLANDKHS
notes: pGEX-6P-2rbs; named without GST in the assays; source: bacteria, purified as described (Klare et al., 2015)
For the molecule B1, binding was put at a Kd of 1000 nM.

As usually defined, the Kd is the free concentration of one partner at which half of the binding sites on the other are occupied at equilibrium, for simple one-to-one binding. A higher Kd goes with weaker binding.

The record behind these values is publication PMC5777823 (eLife, 2017).
